The values that follow come from US20180185467A1 (Harvard, published 2018).

This assay concerns the target T1, GST-NS3 of YFV (strain 17D) (Yellow Fever virus, strain 17D, UniProt P03314 1485-2107).
T1 construct: domain: NS3; also called YFV NS3; NS3 of Yellow Fever virus
T1 sequence: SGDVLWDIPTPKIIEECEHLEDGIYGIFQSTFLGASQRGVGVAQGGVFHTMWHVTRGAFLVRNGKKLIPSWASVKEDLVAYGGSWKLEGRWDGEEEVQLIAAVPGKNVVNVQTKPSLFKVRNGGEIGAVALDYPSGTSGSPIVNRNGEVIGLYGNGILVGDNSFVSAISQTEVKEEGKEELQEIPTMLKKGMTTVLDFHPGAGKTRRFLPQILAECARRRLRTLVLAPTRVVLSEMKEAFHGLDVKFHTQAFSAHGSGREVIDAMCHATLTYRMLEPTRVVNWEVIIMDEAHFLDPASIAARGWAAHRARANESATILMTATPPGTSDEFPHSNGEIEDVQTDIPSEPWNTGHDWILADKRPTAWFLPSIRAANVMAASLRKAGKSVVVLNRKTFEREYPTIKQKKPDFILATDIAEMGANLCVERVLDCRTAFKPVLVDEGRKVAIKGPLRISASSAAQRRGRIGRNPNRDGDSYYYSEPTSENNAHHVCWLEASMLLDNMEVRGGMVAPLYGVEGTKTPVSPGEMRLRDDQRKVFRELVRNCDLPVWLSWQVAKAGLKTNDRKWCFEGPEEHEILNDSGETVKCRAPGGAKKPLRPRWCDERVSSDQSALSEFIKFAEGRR
Nature of the assay: GST pull-down in 293T cells, immunoblot with anti-14-3-3ε.

B1: endogenous 14-3-3ε (other)
chain: MDDREDLVYQAKLAEQAERYDEMVESMKKVAGMDVELTVEERNLLSVAYKNVIGARRASWRIISSIEQKEENKGGEDKLKMIREYRQMVETELKLICCDILDVLDKHLIPAANTGESKVFYYKMKGDYHRYLAEFATGNDRKEAAENSLVAYKAASDIAMTELPPTHPIRLGLALNFSVFYYEILNSPDRACRLAKAAFDDAIAELDTLSEESYKDSTLIMQLLRDNLTLWTSDMQGDGEEQNKEALQDVEDENQ
Turning to B1, the binding result is “no binding”.
